Experiments:
[1] = target: KNH1144 SOSIP gp140 trimer with the hexaarginine (R6) mutation (HIV-1 subtype A isolate KNH1144); test: native gel or EMSA
[2] = target: KNH1144 SOSIP gp140 trimer with the hexaarginine (R6) mutation (HIV-1 subtype A isolate KNH1144); test: negative-stain electron microscopy

Row | Substance | stoichiometry N [1] | stoichiometry N (molecules per trimer) [1] | stoichiometry N (molecules per trimer) [2]
1 | KNH1144 SOSIP gp140 trimer with the hexaarginine (R6) mutation (complex) | 3 | – | –
2 | four-domain soluble CD4 (domain or fragment) | – | 3 | 3
3 | two-domain soluble CD4 (domain or fragment) | – | 3 | –
